Experimental data from paper PMC3173395, “Characterization of the latent membrane protein 1 signaling complex of Epstein-Barr virus in the membrane of mammalian cells with bimolecular fluorescence complementation” (Virology Journal, 2011).

Biological target: T1, A5-Y384G-NYFP (full-length LMP1 with mutations in CTAR1 and CTAR2, NYFP at the C-terminus) (Epstein-Barr virus, B95-8 strain, UniProt P03230 1-386, amino acids 204-208 PQQAT mutated to AAAAA | Y384G)
T1 sequence: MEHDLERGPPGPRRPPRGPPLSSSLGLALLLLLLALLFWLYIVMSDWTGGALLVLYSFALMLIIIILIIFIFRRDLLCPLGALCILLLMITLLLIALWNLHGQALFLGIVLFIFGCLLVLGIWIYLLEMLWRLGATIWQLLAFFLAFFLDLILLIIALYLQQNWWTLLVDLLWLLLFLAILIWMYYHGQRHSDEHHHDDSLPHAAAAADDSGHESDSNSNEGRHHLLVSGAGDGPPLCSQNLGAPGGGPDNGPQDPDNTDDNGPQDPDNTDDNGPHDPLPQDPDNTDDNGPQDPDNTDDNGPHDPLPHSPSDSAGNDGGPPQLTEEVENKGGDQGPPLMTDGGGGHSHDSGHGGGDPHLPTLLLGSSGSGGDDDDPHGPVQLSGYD
Assay: cell-based or functional assay

B1: CYFP-TRAF2 (CYFP fused to the amino-terminus of TRAF2, amino acids 98-501) (domain or fragment)
chain: REVESLPAVCPSDGCTWKGTLKEYESCHEGRCPLMLTECPACKGLVRLGEKERHLEHECPERSLSCRHCRAPCCGADVKAHHEVCPKFPLTCDGCGKKKIPREKFQDHVKTCGKCRVPCRFHAIGCLETVEGEKQQEHEVQWLREHLAMLLSSVLEAKPLLGDQSHAGSELLQRCESLEKKTATFENIVCVLNREVERVAMTAEACSRQHRLDQDKIEALSSKVQQLERSIGLKDLAMADLEQKVLEMEASTYDGVFIWKISDFARKRQEAVAGRIPAIFSPAFYTSRYGYKMCLRIYLNGDGTGRGTHLSLFFVVMKGPNDALLRWPFNQKVTLMLLDQNNREHVIDAFRPDVTSSSFQRPVNDMNIASGCPLFCPVSKMEAKNSYVRDDAIFIKAIVDLTGL
Q: Which “NF-kB luciferase reporter activity in HEK-293T cells transfected with A5-Y384G-NYFP + A5-Y384G-CYFP (A5-Y384G BiFC), fold above vector; about 50% of LMP1 and LMP1-BiFC” value does the source give for B1 here?
A: The value was about 22 fold.
